US20200017592A1 (Regeneron, published 2020)
Residue numbers refer to the chain shown, from its start. One block for each binder: values may come before it.

How the values were obtained:
[1] = target: T1, recombinant human IL-36R extracellular domain expressed with a C-terminal myc-myc-hexahistidine tag (human, UniProt Q9HB29 20-337); assay: SPR (Biacore 4000), mAb captured on anti-human Fc, 37°C
T1 construct: also called hIL-36R-MMH; hIL-36R.mmH
Method: (§1) Equilibrium dissociation constants (KD values) for IL-36R binding to purified anti-IL-36R antibodies were determined using a real-time surface plasmon resonance biosensor using a Biacore 4000 instrument. The Biacore sensor surface was first derivatized by amine coupling with a monoclonal mouse anti-human Fc antibody (GE, # BR-1008-39) to capture anti-IL-36R monoclonal antibodies. All binding studies were performed in 0.01 M Hepes pH 7.4, 0.15 M NaCl, 3 mM EDTA, and 0.05% v/v Surfactant Tween-20 (HBS-ET running buffer) at 25° C. and 37° C. Different concentrations of IL-36R reagents, human IL-36R extracellular domain expressed with a C-terminal myc-myc-hexahistidine tag (hIL-36R-MMH), Macaca fascicularis IL-36R extracellular domain expressed with a C-terminal myc-myc-hexahistidine tag (mfIL-36R-MMH: mROR1 signal sequence (M1-A29). Macaca fascicularis IL36R_ecto domain (D20-A336).mycmycHis6), human IL-36R extracellular domain expressed with a C-terminal mouse IgG2a Fc tag (hIL-36R-mFc: mROR1 signal sequence (M1-A29)-human IL36R (D20-Y337)-mouse IgG2aFc (E98-K330)) or an in-line fusion protein of human IL-36R extracellular domain and IL1RAcP extracellular domain expressed with mouse IgG2a Fc tag (hIL-36R-Trap-mFc: mROR1 signal sequence (M1-A29)-human IL36R ecto domain (D20-Y337)-human IL1RacP ecto domain(S21-E359)-mouse IgG2aFc) in HBS-ET running buffer (ranging from 100 nM to 3.7 nM, 3-fold dilutions) were injected over the anti-IL-36R antibody captured surface for 4 minutes at a flow rate of 30 μL/minute and their dissociation in HBS-ET running buffer was monitored for 10 minutes. Kinetic association rate constant (kₐ) and dissociation rate constant (kd) were determined by fitting the real-time sensorgrams to a 1:1 binding model using Scrubber 2.0c curve fitting software. Binding dissociation equilibrium constants (KD) and dissociative half-lives (t_{1/2}) were calculated from the kinetic rate constants as: […]

[2] = target: T1, recombinant human IL-36R extracellular …; assay: SPR (Biacore 4000), mAb captured on anti-human Fc, 25°C
Method: as §1

[3] = target: T2, full-length human IL-36R on cells (human, UniProt Q9HB29 20-575); assay: cell-based or functional assay
T2 sequence (looked up): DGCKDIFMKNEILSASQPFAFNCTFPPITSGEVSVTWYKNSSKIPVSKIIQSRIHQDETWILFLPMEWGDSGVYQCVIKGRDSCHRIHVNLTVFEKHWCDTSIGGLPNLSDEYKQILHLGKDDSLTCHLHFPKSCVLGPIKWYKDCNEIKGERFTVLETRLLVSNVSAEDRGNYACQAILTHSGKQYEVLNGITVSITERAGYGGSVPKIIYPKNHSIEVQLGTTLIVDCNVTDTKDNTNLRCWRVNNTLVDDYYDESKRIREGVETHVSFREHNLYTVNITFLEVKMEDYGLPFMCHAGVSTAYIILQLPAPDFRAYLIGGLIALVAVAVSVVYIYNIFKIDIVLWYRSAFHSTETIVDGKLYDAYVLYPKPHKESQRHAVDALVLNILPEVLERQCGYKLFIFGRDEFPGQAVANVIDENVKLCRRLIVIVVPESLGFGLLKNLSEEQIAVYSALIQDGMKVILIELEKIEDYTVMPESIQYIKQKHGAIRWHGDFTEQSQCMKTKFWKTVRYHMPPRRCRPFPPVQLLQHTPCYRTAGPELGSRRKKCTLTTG

[4] = target: T3, Macaca fascicularis IL-36R on cells (Macaca fascicularis, UniProt A0A2K5WSK9 20-558); assay: cell-based or functional assay
T3 sequence: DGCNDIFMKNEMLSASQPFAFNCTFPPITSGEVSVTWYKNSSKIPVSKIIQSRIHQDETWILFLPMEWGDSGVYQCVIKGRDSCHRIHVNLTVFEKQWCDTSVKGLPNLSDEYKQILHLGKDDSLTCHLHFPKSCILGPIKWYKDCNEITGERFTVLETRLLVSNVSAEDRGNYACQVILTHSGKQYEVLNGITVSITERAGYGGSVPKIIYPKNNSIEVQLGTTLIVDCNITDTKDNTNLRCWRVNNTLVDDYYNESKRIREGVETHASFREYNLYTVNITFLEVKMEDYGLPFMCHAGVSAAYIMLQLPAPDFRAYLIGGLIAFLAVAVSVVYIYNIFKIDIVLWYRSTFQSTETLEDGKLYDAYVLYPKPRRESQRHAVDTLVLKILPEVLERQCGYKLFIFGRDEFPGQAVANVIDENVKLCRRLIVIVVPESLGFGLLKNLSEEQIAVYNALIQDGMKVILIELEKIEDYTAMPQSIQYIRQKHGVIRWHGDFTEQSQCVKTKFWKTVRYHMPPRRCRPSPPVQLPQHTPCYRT

B2: H4H14728P (antibody, human IgG4 S228P, kappa, V domains shown)
VH: QVQLQESGPGLVKPSQTLSLTCTVSGGSISSADYYWSWIRQHPGKGLEWIGSIYYTGSTYYNPSLKSRLTISIDTSENQFSLKLTSLTAADTAVYYCASEEANWGSHFDSWGQGTLVTVSS
VL: DIQMTQSPSSLSASVGDRVTITCRASQSIDNFLNWYQQKPGKAPKLLIYAASSLQSGVPSRFSGSGSGTDFTLTISSLQPEDFASYYCQHSHSAHPITFGQGTRLEIKR
IC50 [M], NFκB-luciferase, 300 pM hIL-36γ [4]: 2e-09 M
IC50 [M], NFκB-luciferase, 500 pM hIL-36α [4]: 1.3e-09 M
IC50 [M], NFκB-luciferase, 600 pM hIL-36β [4]: 1.5e-09 M
Max Inhibition (%), NFκB-luciferase, 300 pM hIL-36γ [4]: 93%
Max Inhibition (%), NFκB-luciferase, 500 pM hIL-36α [4]: 93%
Max Inhibition (%), NFκB-luciferase, 600 pM hIL-36β [4]: 95%
100 nM hIL-36R-MMH Bound (RU) [1]: 93 RU
Kd [1]: 21.5 nM
koff [1]: 0.00293 s⁻¹
kon [1]: 136000 M⁻¹ s⁻¹
t½ [1]: 4 min
100 nM hIL-36R-MMH Bound (RU) [2]: 69 RU
Kd [2]: 7.87 nM
koff [2]: 0.000773 s⁻¹
kon [2]: 98300 M⁻¹ s⁻¹
t½ [2]: 15 min
IC50 [M], NFκB-luciferase, 10 pM hIL-36γ [3]: 1.2e-09 M
IC50 [M], NFκB-luciferase, 15 pM hIL-36β [3]: 1.3e-09 M
IC50 [M], NFκB-luciferase, 20 pM hIL-36α [3]: 9.7e-10 M
Max Inhibition (%), NFκB-luciferase, 10 pM hIL-36γ [3]: 99%
Max Inhibition (%), NFκB-luciferase, 15 pM hIL-36β [3]: 99%
Max Inhibition (%), NFκB-luciferase, 20 pM hIL-36α [3]: 97%

B3: H4H14731P (antibody, human IgG4 S228P, kappa, V domains shown)
VH: QLQLQESGPGLVKPSETLSLTCTVSGGSISSSNYYWGWIRQPPGKRLEWIGSIYYSGSTYYNPSLKTRVTISVDTSKNQFSLKLTSVTAADTAVYYCAREEAAALTHFDFWGQGTLVTVSS
VL: B2 VL with D30S, F32Y, Y49F, S85T, A94S
IC50 [M], NFκB-luciferase, 300 pM hIL-36γ [4]: 5.4e-09 M
IC50 [M], NFκB-luciferase, 500 pM hIL-36α [4]: 3.1e-09 M
IC50 [M], NFκB-luciferase, 600 pM hIL-36β [4]: 7.1e-09 M
Max Inhibition (%), NFκB-luciferase, 300 pM hIL-36γ [4]: 75%
Max Inhibition (%), NFκB-luciferase, 500 pM hIL-36α [4]: 84%
Max Inhibition (%), NFκB-luciferase, 600 pM hIL-36β [4]: 78%
100 nM hIL-36R-MMH Bound (RU) [1]: 81 RU
Kd [1]: 7.11 nM
koff [1]: 0.000971 s⁻¹
kon [1]: 137000 M⁻¹ s⁻¹
t½ [1]: 12 min
100 nM hIL-36R-MMH Bound (RU) [2]: 54 RU
Kd [2]: 3.72 nM
koff [2]: 0.000343 s⁻¹
kon [2]: 92200 M⁻¹ s⁻¹
t½ [2]: 34 min
IC50 [M], NFκB-luciferase, 10 pM hIL-36γ [3]: 7.3e-10 M
IC50 [M], NFκB-luciferase, 15 pM hIL-36β [3]: 9.4e-10 M
IC50 [M], NFκB-luciferase, 20 pM hIL-36α [3]: 7.8e-10 M
Max Inhibition (%), NFκB-luciferase, 10 pM hIL-36γ [3]: 99%
Max Inhibition (%), NFκB-luciferase, 15 pM hIL-36β [3]: 99%
Max Inhibition (%), NFκB-luciferase, 20 pM hIL-36α [3]: 99%

Other lines, results leading:

100 nM hIL-36R-MMH Bound (RU) [1]: 111 RU
Kd [1]: 15 nM
koff [1]: 0.00237 s⁻¹
kon [1]: 158000 M⁻¹ s⁻¹
t½ [1]: 5 min
100 nM hIL-36R-MMH Bound (RU) [2]: 87 RU
Kd [2]: 7.63 nM
koff [2]: 0.000923 s⁻¹
kon [2]: 121000 M⁻¹ s⁻¹
t½ [2]: 13 min
IC50 [M], NFκB-luciferase, 10 pM hIL-36γ [3]: 1.6e-10 M
IC50 [M], NFκB-luciferase, 20 pM hIL-36α [3]: 1.2e-10 M
Max Inhibition (%), NFκB-luciferase, 10 pM hIL-36γ [3]: 57%
Max Inhibition (%), NFκB-luciferase, 20 pM hIL-36α [3]: 100%
B1: H4H14758P (antibody, human IgG4 S228P, kappa, V domains shown)
VH: EVQLVESGGGLVQPGRSLRLSCAASGFTFDDYAMHWVRQAPGKGLEWVSSVRWNGGIIGYADSVKGRFTISRDNAKNSLYLQMNSLRPEDTALYYCAKDIGDVLTGYYGEYGMDVWGQGTTVTVSS
VL: DIQMTQSPSSLSASVGDRVTIACRASQSITTYLNWYQQKPGKAPKLLIYAASSLQSGVPSRFSGSGSGTDFTLTISSLQPEDFATYYCQQSYISPYTFGQGTKLEIKR

100 nM hIL-36R-MMH Bound (RU) [1]: 25 RU
Kd [1]: 13.9 nM
koff [1]: 0.000749 s⁻¹
kon [1]: 53900 M⁻¹ s⁻¹
t½ [1]: 15 min
100 nM hIL-36R-MMH Bound (RU) [2]: 22 RU
Kd [2]: 12.2 nM
koff [2]: 0.000404 s⁻¹
kon [2]: 33200 M⁻¹ s⁻¹
t½ [2]: 29 min
B4: H4H14734P2 (antibody, human IgG4 S228P, kappa, V domains shown)
VH: EVQLVESGGGLVKPGGSLRLSCAASGFIFSNAWMNWVRQAPGKGLAWVGRIKTETDGGTTDYAAPVKGRFTISRDDSKNTLYLQMNSVKTEDTAVYYCTGGYSYGDDSSSWNEGYYYYGMDVWGQGTTVTVSS
VL: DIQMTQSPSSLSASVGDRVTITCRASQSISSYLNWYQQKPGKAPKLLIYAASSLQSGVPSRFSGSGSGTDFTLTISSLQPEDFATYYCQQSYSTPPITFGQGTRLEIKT
